Assay results published in US20220008527A1 (AGENUS, published 2022).

B1: polypeptide LGVVRPRALHRELDLVDDSPTPGSPGSFFRKNWLRLTW (SEQ ID NO: 77) (peptide)
peptide: LGVVRPRALHRELDLVDDSPTPGSPGSFFRKNWLRLTW
notes: also called polypeptide comprising PEP006; PEP006-containing polypeptide

Target: T1, recombinant human heat shock cognate 71 kDa protein (Hsc70) (human, UniProt P11142 1-646, limits assumed)
T1 construct: also called rhHsc70; human Hsc70
Assay: SEC of peptide-Hsc70 mixture; peptide:Hsc70 molar ratio 4:1

T1 sequence (P11142 whole entry): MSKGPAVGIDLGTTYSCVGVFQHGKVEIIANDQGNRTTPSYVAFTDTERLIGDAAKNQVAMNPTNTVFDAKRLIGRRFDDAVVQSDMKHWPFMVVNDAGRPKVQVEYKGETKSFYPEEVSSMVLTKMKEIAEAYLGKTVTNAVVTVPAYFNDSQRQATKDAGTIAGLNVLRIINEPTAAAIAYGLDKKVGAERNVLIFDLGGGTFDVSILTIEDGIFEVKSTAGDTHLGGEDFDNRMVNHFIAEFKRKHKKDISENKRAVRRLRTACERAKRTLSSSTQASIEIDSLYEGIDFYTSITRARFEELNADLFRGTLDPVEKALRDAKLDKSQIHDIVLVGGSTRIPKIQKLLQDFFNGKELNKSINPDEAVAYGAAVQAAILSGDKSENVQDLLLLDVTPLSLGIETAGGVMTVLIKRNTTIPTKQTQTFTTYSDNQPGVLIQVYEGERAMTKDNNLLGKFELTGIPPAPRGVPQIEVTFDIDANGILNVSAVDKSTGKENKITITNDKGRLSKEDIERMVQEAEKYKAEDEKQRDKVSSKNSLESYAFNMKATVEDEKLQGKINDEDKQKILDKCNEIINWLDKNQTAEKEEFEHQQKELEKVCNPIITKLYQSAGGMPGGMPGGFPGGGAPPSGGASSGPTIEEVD

First: FRNWLRLTW (Synthetic peptide) [PEP028]
Second: FFRKNWIRITW (Synthetic peptide) [PEP013]
The “Percent complexation with Hsc70” value of the first is lower: 87.5% for the first, 87.7% for the second.

Going from FFRKNRLLLTG (Synthetic peptide) [PEP002] to FFRKNRLWLTG (Synthetic peptide) [PEP005], the “Percent complexation with Hsc70” value falls from 78.8% to 77.6%.

Going from FFRKNFLRLTF (Synthetic peptide) [PEP027] to FFRKNWLRLTW (Synthetic peptide) [PEP006], the “Percent complexation with Hsc70” value rises from 90% to 91.8%.

Compared with FFRKNWLKLKW (Synthetic peptide) [PEP055], FFRKNWLRLFW (Synthetic peptide) [PEP010] is higher in “Percent complexation with Hsc70” value: 86.3% for the first, 86.5% for the second.

Compared with FFRKNLLRLTG (Synthetic peptide) [PEP001], FFRKFWLRLTW (Synthetic peptide) [PEP008] is lower in “Percent complexation with Hsc70” value: 90.1% for the first, 81.6% for the second.

Compared with FFRKNLLRLTW (Synthetic peptide) [PEP155], FFRKNWLKLTW (Synthetic peptide) [PEP012] is higher in “Percent complexation with Hsc70” value: 86.6% for the first, 89.5% for the second.

Compared with FFRKNWLRLLW (Synthetic peptide) [PEP009], FFRKQWLRLTW (Synthetic peptide) [PEP014] is higher in “Percent complexation with Hsc70” value: 89% for the first, 90.3% for the second.

First: FFRKNWLLLTW (Synthetic peptide) [PEP003]
Second: FFRKNWLRLKW (Synthetic peptide) [PEP011]
The “Percent complexation with Hsc70” value of the first is lower: 87.6% for the first, 90.4% for the second.

Going from FFRKNLLRWTG (Synthetic peptide) [PEP004] to FFRKNWLKLRW (Synthetic peptide) [PEP057], the “Percent complexation with Hsc70” value rises from 75.3% to 88.3%.

FFRKNWLKLWK (Synthetic peptide) [PEP058] was tested, and the “Percent complexation with Hsc70” value was 83.9%.

Target: T1, recombinant human heat shock cognate 71 …
Assay: SEC of peptide-Hsc70 mixture; peptide:Hsc70 molar ratio 1:1

Compared with FRNWLRLTW (Synthetic peptide) [PEP028], FFRKNWIRITW (Synthetic peptide) [PEP013] is lower in “Percent complexation with Hsc70” value: 75.6% for the first, 69.6% for the second.

First: FFRKNRLLLTG (Synthetic peptide) [PEP002]
Second: FFRKNRLWLTG (Synthetic peptide) [PEP005]
The “Percent complexation with Hsc70” value of the first is lower: 48.7% for the first, 54.8% for the second.

Going from FFRKNFLRLTF (Synthetic peptide) [PEP027] to FFRKNWLRLTW (Synthetic peptide) [PEP006], the “Percent complexation with Hsc70” value rises from 77% to 81.5%.

Compared with FFRKNWLKLKW (Synthetic peptide) [PEP055], FFRKNWLRLFW (Synthetic peptide) [PEP010] is lower in “Percent complexation with Hsc70” value: 75.9% for the first, 64.9% for the second.

Compared with FFRKNLLRLTG (Synthetic peptide) [PEP001], FFRKFWLRLTW (Synthetic peptide) [PEP008] is lower in “Percent complexation with Hsc70” value: 68.1% for the first, 61.8% for the second.

Compared with FFRKNLLRLTW (Synthetic peptide) [PEP155], FFRKNWLKLTW (Synthetic peptide) [PEP012] is higher in “Percent complexation with Hsc70” value: 75.6% for the first, 79.2% for the second.

Compared with FFRKNWLRLLW (Synthetic peptide) [PEP009], FFRKQWLRLTW (Synthetic peptide) [PEP014] is lower in “Percent complexation with Hsc70” value: 81% for the first, 80.9% for the second.

First: FFRKNWLLLTW (Synthetic peptide) [PEP003]
Second: FFRKNWLRLKW (Synthetic peptide) [PEP011]
The “Percent complexation with Hsc70” value of the first is lower: 67.2% for the first, 81.6% for the second.

First: FFRKNLLRWTG (Synthetic peptide) [PEP004]
Second: FFRKNWLKLRW (Synthetic peptide) [PEP057]
The “Percent complexation with Hsc70” value of the first is lower: 46.8% for the first, 72.2% for the second.

In the case of FFRKNWLKLWK (Synthetic peptide) [PEP058], the “Percent complexation with Hsc70” value is reported as 66.5%.

Target: T1, recombinant human heat shock cognate 71 …
Assay: size exclusion chromatography of polypeptide-Hsc70 mixtures, molar ratios 0.125:1 to 4:1 (FIG. 3A)

B1: binds.

Target: T1, recombinant human heat shock cognate 71 …
Assay: SEC of peptide-Hsc70 mixture; peptide:Hsc70 molar ratio 0.5:1

First: FRNWLRLTW (Synthetic peptide) [PEP028]
Second: FFRKNWIRITW (Synthetic peptide) [PEP013]
The “Percent complexation with Hsc70” value of the first is lower: 46.4% for the first, 48.3% for the second.

Compared with FFRKNRLLLTG (Synthetic peptide) [PEP002], FFRKNRLWLTG (Synthetic peptide) [PEP005] is higher in “Percent complexation with Hsc70” value: 32% for the first, 32.7% for the second.

Going from FFRKNFLRLTF (Synthetic peptide) [PEP027] to FFRKNWLRLTW (Synthetic peptide) [PEP006], the “Percent complexation with Hsc70” value rises from 49% to 53.4%.

Going from FFRKNWLKLKW (Synthetic peptide) [PEP055] to FFRKNWLRLFW (Synthetic peptide) [PEP010], the “Percent complexation with Hsc70” value falls from 52.2% to 42.2%.

First: FFRKNLLRLTG (Synthetic peptide) [PEP001]
Second: FFRKFWLRLTW (Synthetic peptide) [PEP008]
The “Percent complexation with Hsc70” value of the first is higher: 44.7% for the first, 38.3% for the second.

Going from FFRKNLLRLTW (Synthetic peptide) [PEP155] to FFRKNWLKLTW (Synthetic peptide) [PEP012], the “Percent complexation with Hsc70” value rises from 48.1% to 58.2%.

Going from FFRKNWLRLLW (Synthetic peptide) [PEP009] to FFRKQWLRLTW (Synthetic peptide) [PEP014], the “Percent complexation with Hsc70” value falls from 63.5% to 54.4%.

Going from FFRKNWLLLTW (Synthetic peptide) [PEP003] to FFRKNWLRLKW (Synthetic peptide) [PEP011], the “Percent complexation with Hsc70” value rises from 45.6% to 58.2%.

First: FFRKNLLRWTG (Synthetic peptide) [PEP004]
Second: FFRKNWLKLRW (Synthetic peptide) [PEP057]
The “Percent complexation with Hsc70” value of the first is lower: 29% for the first, 50% for the second.

With FFRKNWLKLWK (Synthetic peptide) [PEP058] the “Percent complexation with Hsc70” value was 43.5%.

Target: T1, recombinant human heat shock cognate 71 …
Assay: SEC of peptide-Hsc70 mixture; peptide:Hsc70 molar ratio 2:1

First: FRNWLRLTW (Synthetic peptide) [PEP028]
Second: FFRKNWIRITW (Synthetic peptide) [PEP013]
The “Percent complexation with Hsc70” value of the first is higher: 84.1% for the first, 81.9% for the second.

First: FFRKNRLLLTG (Synthetic peptide) [PEP002]
Second: FFRKNRLWLTG (Synthetic peptide) [PEP005]
The “Percent complexation with Hsc70” value of the first is lower: 64.8% for the first, 67.6% for the second.

Compared with FFRKNFLRLTF (Synthetic peptide) [PEP027], FFRKNWLRLTW (Synthetic peptide) [PEP006] is higher in “Percent complexation with Hsc70” value: 85.6% for the first, 88.3% for the second.

Compared with FFRKNWLKLKW (Synthetic peptide) [PEP055], FFRKNWLRLFW (Synthetic peptide) [PEP010] is lower in “Percent complexation with Hsc70” value: 83.7% for the first, 79.3% for the second.

Compared with FFRKNLLRLTG (Synthetic peptide) [PEP001], FFRKFWLRLTW (Synthetic peptide) [PEP008] is lower in “Percent complexation with Hsc70” value: 82.5% for the first, 79.1% for the second.

Compared with FFRKNLLRLTW (Synthetic peptide) [PEP155], FFRKNWLKLTW (Synthetic peptide) [PEP012] is higher in “Percent complexation with Hsc70” value: 82.9% for the first, 86.2% for the second.

Compared with FFRKNWLRLLW (Synthetic peptide) [PEP009], FFRKQWLRLTW (Synthetic peptide) [PEP014] is higher in “Percent complexation with Hsc70” value: 85.3% for the first, 88.1% for the second.

Compared with FFRKNWLLLTW (Synthetic peptide) [PEP003], FFRKNWLRLKW (Synthetic peptide) [PEP011] is higher in “Percent complexation with Hsc70” value: 81.3% for the first, 87.8% for the second.

Going from FFRKNLLRWTG (Synthetic peptide) [PEP004] to FFRKNWLKLRW (Synthetic peptide) [PEP057], the “Percent complexation with Hsc70” value rises from 62.5% to 82.8%.

FFRKNWLKLWK (Synthetic peptide) [PEP058] was tested, and the “Percent complexation with Hsc70” value was 78.8%.

Target: T1, recombinant human heat shock cognate 71 …
Assay: SEC of peptide-Hsc70 mixture; peptide:Hsc70 molar ratio 0.25:1

Going from FRNWLRLTW (Synthetic peptide) [PEP028] to FFRKNWIRITW (Synthetic peptide) [PEP013], the “Percent complexation with Hsc70” value rises from 24% to 25.6%.

Compared with FFRKNRLLLTG (Synthetic peptide) [PEP002], FFRKNRLWLTG (Synthetic peptide) [PEP005] is lower in “Percent complexation with Hsc70” value: 19.2% for the first, 16% for the second.

Compared with FFRKNFLRLTF (Synthetic peptide) [PEP027], FFRKNWLRLTW (Synthetic peptide) [PEP006] is higher in “Percent complexation with Hsc70” value: 19.1% for the first, 25.4% for the second.

Compared with FFRKNWLKLKW (Synthetic peptide) [PEP055], FFRKNWLRLFW (Synthetic peptide) [PEP010] is lower in “Percent complexation with Hsc70” value: 24.1% for the first, 19.1% for the second.

Going from FFRKNLLRLTG (Synthetic peptide) [PEP001] to FFRKFWLRLTW (Synthetic peptide) [PEP008], the “Percent complexation with Hsc70” value rises from 23.4% to 24.4%.

Compared with FFRKNLLRLTW (Synthetic peptide) [PEP155], FFRKNWLKLTW (Synthetic peptide) [PEP012] is higher in “Percent complexation with Hsc70” value: 22.5% for the first, 29.9% for the second.

First: FFRKNWLRLLW (Synthetic peptide) [PEP009]
Second: FFRKQWLRLTW (Synthetic peptide) [PEP014]
The “Percent complexation with Hsc70” value of the first is higher: 32.8% for the first, 29.3% for the second.

First: FFRKNWLLLTW (Synthetic peptide) [PEP003]
Second: FFRKNWLRLKW (Synthetic peptide) [PEP011]
The “Percent complexation with Hsc70” value of the first is lower: 26.8% for the first, 31.2% for the second.

Going from FFRKNLLRWTG (Synthetic peptide) [PEP004] to FFRKNWLKLRW (Synthetic peptide) [PEP057], the “Percent complexation with Hsc70” value rises from 15.4% to 24.9%.

In the case of FFRKNWLKLWK (Synthetic peptide) [PEP058], the “Percent complexation with Hsc70” value is reported as 22.7%.
